Measurements reported in US20260209322A1 (HAMAD BIN KHALIFA UNIVERSITY, published 2026).

Key:
Experiment in all cases: filter retardation assay
mouse α-synuclein = mouse α-synuclein (mouse, UniProt O55042 1-140)
Protocol: (§1) Filter retardation assay was performed using a Minifold 48 slots (GE Healthcare Life Sciences). Each protein (50 μl) at a final concentration of 1 μg/ml was loaded into each slot on a nitrocellulose membrane that has been pre-soaked in PBS. Samples were allowed to absorb onto the nitrocellulose membrane and then slots were washed with 1 ml of PBS. Membranes were then probed with relevant antibodies, and developed with SuperSignal West Pico Chemiluminescent Substrate Kit.

γ-synuclein = γ-synuclein (UniProt O76070 1-127)
Protocol: as §1

β-synuclein = β-synuclein (UniProt Q16143 1-134)
Sequence of β-synuclein (Q16143 whole entry): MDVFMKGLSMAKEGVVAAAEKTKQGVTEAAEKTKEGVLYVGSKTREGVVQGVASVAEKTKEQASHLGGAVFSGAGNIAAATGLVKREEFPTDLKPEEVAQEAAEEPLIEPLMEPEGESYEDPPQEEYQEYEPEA
Protocol: as §1

Sequence of γ-synuclein (O76070 whole entry): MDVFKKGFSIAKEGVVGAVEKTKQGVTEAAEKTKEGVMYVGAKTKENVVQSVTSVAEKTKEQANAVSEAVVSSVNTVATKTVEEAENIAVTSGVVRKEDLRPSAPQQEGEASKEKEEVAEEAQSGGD

binding result (mouse α-synuclein): binds
binding result (γ-synuclein): no binding
binding result (β-synuclein): no binding
B1: monoclonal antibody 4B1 produced by hybridoma 4B1 (ATCC Patent Deposit Number PTA-127017) (antibody, mouse IgG1, kappa, V domains shown)
VH: EVKLVESGGGLVQPGGSLKLSCAASGITFSSYTMSWVRQTPEKRLEWVGYISNGGGRTYYPDTVKGRFTISRDNAKNTLYLQMSSLKSEDTAMYYCARQITTAMGYYYAMDYWGQGTSVTVSS
VL: DVVMTQTPLSLPVSLGDQASISCRSSQSLVHSNGNTYLHWYLQKPGQSPKLLISKVSNRFSGVPDRFSGSGSGTDFTLKISRVEAEDLGVYFCSQSTHVPLTFGAGTKLELKR
notes: also called mAb 4B1; 4E1
